In the RNAGym collection of RNA variant scans (doi:10.1073/pnas.2313332121):

B1: TPR t1 (parent)
chain: GACCAAUCUGCCCUCAGAGCUCGAGAACAUCUUCGGAUGCAGAGGAGGCAGGCUUCGGUGGCGCGAUAGCGCCAACGUCCUCAACCUCCAAUGCAUCCCACCACAUGAUGAUGCCUGAAGAGCCUUGGUUUUUUG

Variants of: B1
Assay: polymerase ribozyme fitness, log enrichment relative to wild type (log ratio); higher = more active; in vitro selection for triplet polymerase activity
Outline: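 Each subunit of a heterodimeric triplet polymerase ribozyme was mutagenized into a library by PCR, transcribed, and subjected to one round of in vitro selection, run in triplicate. Libraries were annealed with a biotinylated primer, the partner subunit and triplets, incubated frozen at −7 °C, and extended constructs were gel-excised, captured on streptavidin beads and recovered by RT-PCR. Input and output libraries were sequenced on Illumina, keeping genotypes with ≥10 input reads and ≥1 read per output. Fitness is log base 2 of genotype enrichment divided by wild-type enrichment, from inverse-variance-weighted replicate averages.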

Variant	polymerase ribozyme fitness (log ratio)
GACCAAUCUGCCCUCAGAGCUCGAGAACAUCUUCGGAUGCAGAGGAGGCAGGCUUCGGUGGCGCGAUAGCGCCAACUUCCUCAACCUCCAAUGCAUCCCAGCACAUGAUGAUGCCUGAAGAGCCUUAGUUUUUUG [G77U C101G G127A]	-2.44
GACCAAUCUGCCCUCAGAGCUCGAGAACAUCUUCGGAUGCAGAGGAGGCAGGCUUCGGUGGCGCGAUAGCGCCAACUUCCUCAACCUCCAAUGCAUCCCACCACAUGAUGAUGCCUGAAGAGCGUUGGUUUUUUG [G77U C124G]	1.96
GACCAAUCUGCCCUCAGAGCUCGAGAACAUCUUCGGAUGCAGAGGAGGCAGGCUUCGGUGGCGCGAUAGCGCCAACCUCCUCAACCUCCAAUGCAUCCCACCACAUGAUGAUGACUGAAGAGCUUUGGUUUUUUG [G77C C114A C124U]	-2.41
GACCAAUCUGCCCUCAGAGCUCGAGAACAUCUUCGGAUGCAGAGGAGGCAGGCUUCGGUGGCGCGAUAGCGCCAACAUCCUCAACCUCCAAUGCAGCCCACCACAUGAUGAUGCCUGAAGAGCCUUGGUUUUUUG [G77A U96G]	-1.12
GACCAAUCUGCCCUCAGAGCUCGAGAACAUCUUCGGAUGCAGAGGAGGCAGGCUUCGGUGGCGCGAUAGCGCCAACUUCCUCAACCUGCAAAGCAUCCCACCACAUGAUGAUCCCUGAAGAAGCUUGGUUUUUUG [G77U C88G U92A G113C G122A C123G]	-4.68
GACCAAUCUGCCCUCAGAGCUCGAGAACAUCUUCGGAUGCAGAGGAGGCAGGCUUCGGUGGCGCGAUAGCGCCAACCUCCUCAACCUCCAAUGCAUCCCACCACAUGAUGAUGCCUGAAGAGCCCUGGUUUUUUG [G77C U125C]	-3.91
GACCAAUCUGCCCUCAGAGCUCGAGAACAUCUUCGGAUGCAGAGGAGGCAGGCUUCGGUGGCGCGAUAGCGCCAACAUCCUCAACCUCAAAUGUAUCCCACCACAUGAUGAUGCCUGAAGAACCUUGGUUUUUUG [G77A C89A C94U G122A]	-4.01
GACCAAUCUGCCCUCAGAGCUCGAGAACAUCUUCGGAUGCAGAGGAGGCAGGCUUCGGUGGCGCGAUAGCGCCAACAUCCUCAACCUCCAAUGCAUCCCACCACAUGAUGAUGCCAGAAGAGCCUUGGUUUUUUG [G77A U116A]	-4.07
GACCAAUCUGCCCUCAGAGCUCGAGAACAUCUUCGGAUGCAGAGGAGGCAGGCUUCGGUGGCGCGAUAGCGCCAACAUCCUCAACCUGCAAUGCAUCCCACCACAUGAUGAUGCCUGAAGAGCCUUGGUUUUUUG [G77A C88G]	-0.754
GACCAAUCUGCCCUCAGAGCUCGAGAACAUCUUCGGAUGCAGAGGAGGCAGGCUUCGGUGGCGCGAUAGCGCCAACUUCCUCAACCUCCAAUGCAUCCCACCACAUGAUGAUGCCUGAGGAGCCUUGGUUUUUUG [G77U A119G]	-0.758
GACCAAUCUGCCCUCAGAGCUCGAGAACAUCUUCGGAUGCAGAGGAGGCAGGCUUCGGUGGCGCGAUAGCGCCAACUUCCUCAACCUCCAAUGCAUCCCACCACAUGAUGAUGCGUGAAGAGCCUUGCUUUUUUG [G77U C115G G128C]	-2.98
GACCAAUCUGCCCUCAGAGCUCGAGAACAUCUUCGGAUGCAGAGGAGGCAGGCUUCGGUGGCGCGAUAGCGCCAACCUCCUCAACCUCCAAUGCAUCCCACCACAUGAUGAUGCAUGAAGAGCCUUGGUUUUUUG [G77C C115A]	0.325
GACCAAUCUGCCCUCAGAGCUCGAGAACAUCUUCGGAUGCAGAGGAGGCAGGCUUCGGUGGCGCGAUAGCGCCAACCUCCUCAACCUCCAAUGCAUCCCACCACAUGAUGAUGCCUCAAGAGCCUUGGUUUUUUG [G77C G117C]	-4.29
GACCAAUCUGCCCUCAGAGCUCGAGAACAUCUUCGGAUGCAGAGGAGGCAGGCUUCGGUGGCGCGAUAGCGCCAACCUCCUCAACCUCCAAUGCAUCCCACCACAAGAUGCUGGCUGAAGAGCCUUGGUUCUUUG [G77C U106A A111C C114G U131C]	-5.23
GACCAAUCUGCCCUCAGAGCUCGAGAACAUCUUCGGAUGCAGAGGAGGCAGGCUUCGGUGGCGCGAUAGCGCCAACAUCCUCAACCUCCAAUGCAUCCCACCAAAUGAUGAUGCCUGAAGAGCCUUGAUUUUUUG [G77A C104A G128A]	-3.06
GACCAAUCUGCCCUCAGAGCUCGAGAACAUCUUCGGAUGCAGAGGAGGCAGGCUUCGGUGGCGCGAUAGCGCCAACUUCCUCAACCUCUAUUGCAUCCCACCACAUGAUGAUGCCCGAACAGCCUUGGUUUUUUA [G77U C89U A91U U116C G120C G135A]	-2.85
GACCAAUCUGCCCUCAGAGCUCGAGAACAUCUUCGGAUGCAGAGGAGGCAGGCUUCGGUGGCGCGAUAGCGCCAACUUCCUCAACCUCCAAUGUAUCCCACCACAUGAUGAUGCCUGAAGAGCCUUGGUUUUUUG [G77U C94U]	0.0625
GACCAAUCUGCCCUCAGAGCUCGAGAACAUCUUCGGAUGCAGAGGAGGCAGGCUUCGGUGGCGCGAUAGCGCCAACUUCCUCAACCUCCAAUGCAUCCCACCACAUGAUGAUGCGUGCAGAGCCUUGGUUUUUUG [G77U C115G A118C]	-5.42
GACCAAUCUGCCCUCAGAGCUCGAGAACAUCUUCGGAUGCAGAGGAGGCAGGCUUCGGUGGCGCGAUAGCGCCAACAUUCUCAACCUCCAAUGCAUCCCACCACAUGAUGAUGCCUGAAGAGCAUUGGUUUUUUG [G77A C79U C124A]	1.87
GACCAAUCUGCCCUCAGAGCUCGAGAACAUCUUCGGAUGCAGAGGAGGCAGGCUUCGGUGGCGCGAUAGCGCCAACAUCCUAAACCUCCAAUGCAUCCCACCACAUGAUAAUGCCUGAAGAGACUUGGUUUUUUG [G77A C82A G110A C123A]	-2.98
GACCAAUCUGCCCUCAGAGCUCGAGAACAUCUUCGGAUGCAGAGGAGGCAGGCUUCGGUGGCGCGAUAGCGCCAACUUCCUCAACCUCCAAUGCAUCCCACCACAUGAUGAUGCCUGAAGAGCCUUGGUUUUUUG [G77U]	-0.194

Variant	polymerase ribozyme fitness (log ratio)
GACCAAUCUGCCCUCAGAGCUCGAGAACAUCUUCGGAUGCAGAGGAGGCAGGCUUCGGUGGCGCGAUAGCGCCAACAUCCUCAACCUCCAAUGCAUCCCACCACAUGAUGAUGCCUGAAGAGCCUUGGUUUUUUG [G77A]	-0.264
GACCAAUCUGCCCUCAGAGCUCGAGAACAUCUUCGGAUGCAGAGGAGGCAGGCUUCGGUGGCGCGAUAGCGCCAACCUCCUCAACCUCCAAUGCAUCCCACCACAUGAUGAUGCCUGAAGAGCCUUGGUUUUUUG [G77C]	-0.424
GACCAAUCUGCCCUCAGAGCUCGAGAACAUCUUCGGAUGCAGAGGAGGCAGGCUUCGGUGGCGCGAUAGCGCCAACAUCCUCAACCUCCAUUGCAUCCCACCACAUGAUGAUGCCUGAAGAGCCUUGGUUUUUUG [G77A A91U]	-1.6
GACCAAUCUGCCCUCAGAGCUCGAGAACAUCUUCGGAUGCAGAGGAGGCAGGCUUCGGUGGCGCGAUAGCGCCAACUUCCUCAACCUCCAUUGCAUCCCACCACAUGAUGAUGCCUGAAGAGCCUUGGUUUUCUG [G77U A91U U133C]	-1.24
GACCAAUCUGCCCUCAGAGCUCGAGAACAUCUUCGGAUGCAGAGGAGGCAGGCUUCGGUGGCGCGAUAGCGCCAACUUCCUCAACCUCCAAUGCAUCCCACCACAUGAUGAUACCUGAAGAGCCUUGGUUUUUUG [G77U G113A]	-1.38
GACCAAUCUGCCCUCAGAGCUCGAGAACAUCUUCGGAUGCAGAGGAGGCAGGCUUCGGUGGCGCGAUAGCGCCAACUUCCUCAACCUGCAAUGCAUCCCACCACAUGAUGAUGCCUGAAGAGCCUUGGUUUUUUG [G77U C88G]	-1.02
GACCAAUCUGCCCUCAGAGCUCGAGAACAUCUUCGGAUGCAGAGGAGGCAGGCUUCGGUGGCGCGAUAGCGCCAACCUCCUCAACCUACAAUGCAUCCCACCACAUGAUGAUGCCUGAAGAGCCUUGGUUUUUUG [G77C C88A]	-0.0409
GACCAAUCUGCCCUCAGAGCUCGAGAACAUCUUCGGAUGCAGAGGAGGCAGGCUUCGGUGGCGCGAUAGCGCCAACUCCCUCAACCUCCAAUGCUUCCCACCACAUGAUGAUGCCUGAAGAGGCUUGGUUUUUUG [G77U U78C A95U C123G]	0.706
GACCAAUCUGCCCUCAGAGCUCGAGAACAUCUUCGGAUGCAGAGGAGGCAGGCUUCGGUGGCGCGAUAGCGCCAACAUCCUCUACCCCCAAUGCAUCCCACCAUCUGAUGAUGCCUGAAGAGCCUUGGUUUUUUG [G77A A83U U87C C104U A105C]	-5.02
GACCAAUCUGCCCUCAGAGCUCGAGAACAUCUUCGGAUGCAGAGGAGGCAGGCUUCGGUGGCGCGAUAGCGCCAACUUCCUCAACCUCCAAUGCAUCCCACCACAUGAUGUUGCCUGAAGAGCCUUGGUUUUUUG [G77U A111U]	-3.23
GACCAAUCUGCCCUCAGAGCUCGAGAACAUCUUCGGAUGCAGAGGAGGCAGGCUUCGGUGGCGCGAUAGCGCCAACUUCCUCAACCUCCAAUGCAUCCCACCACAUGAUGAUGGCUGAAGCGCCUUGGUUUUUUG [G77U C114G A121C]	-1.7
GACCAAUCUGCCCUCAGAGCUCGAGAACAUCUUCGGAUGCAGAGGAGGCAGGCUUCGGUGGCGCGAUAGCGCCAACAUCCUCCACCUCCAAUGUAUCCCACCACAUGAUGAUGCGCGAAGAGCCGUGGUUUUUUG [G77A A83C C94U C115G U116C U125G]	-4.83
GACCAAUCUGCCCUCAGAGCUCGAGAACAUCUUCGGAUGCAGAGGAGGCAGGCUUCGGUGGCGCGAUAGCGCCAACACCCUCAACCUCCAAUGCAUCCCACCACAUGAUGAUGCGUGAAGAGCCUUGGUUUUUUG [G77A U78C C115G]	-2.5
GACCAAUCUGCCCUCAGAGCUCGAGAACAUCUUCGGAUGCAGAGGAGGCAGGCUUCGGUGGCGCGAUAGCGCCAACCUCCUCAACCUCCAAUGUAUCCCACCACAUGAUGAUGCCUGAAGAGCCUUGGUUUUUUG [G77C C94U]	-0.725
GACCAAUCUGCCCUCAGAGCUCGAGAACAUCUUCGGAUGCAGAGGAGGCAGGCUUCGGUGGCGCGAUAGCGCCAAUGUCCUCAACCUCCAAUGCAUCCCACCACAUGAUGAAGCCGGAAGAGCCUUGGUUUUUUG [C76U U112A U116G]	-2.03
GACCAAUCUGCCCUCAGAGCUCGAGAACAUCUUCGGAUGCAGAGGAGGCAGGCUUCGGUGGCGCGAUAGCGCCAACUUCCUCAACCUCCAUUGCAUCCCACCACAUGAUGAUGCCUGAAGAGCCUUGGUUUAUUG [G77U A91U U132A]	-2.14
GACCAAUCUGCCCUCAGAGCUCGAGAACAUCUUCGGAUGCAGAGGAGGCAGGCUUCGGUGGCGCGAUAGCGCCAACUUCCUCAACCUCCAAUGCAUCCCACCACAUGAUGAUGCCUGAAGAGUCUUGGUUUUUUG [G77U C123U]	1.47
GACCAAUCUGCCCUCAGAGCUCGAGAACAUCUUCGGAUGCAGAGGAGGCAGGCUUCGGUGGCGCGAUAGCGCCAACUUCCUCAACCUCCAAUGCAUCCCACCACAUGAUGAUGCCUGAAGAGGCUUGGUUUUUUG [G77U C123G]	1.23
GACCAAUCUGCCCUCAGAGCUCGAGAACAUCUUCGGAUGCAGAGGAGGCAGGCUUCGGUGGCGCGAUAGCGCCAACCUCCUCAACCUCCAAUGCAUCCCACCACAUGAUGAUGACUGAAGAGCCUUCGUUUUUUG [G77C C114A G127C]	-2.76
GACCAAUCUGCCCUCAGAGCUCGAGAACAUCUUCGGAUGCAGAGGAGGCAGGCUUCGGUGGCGCGAUAGCGCCAACAUCCUCAACCUCCAAUGCAUCCCACCACAUGAAGAUGCCUGAAGAGCCUUGGUUUUUUG [G77A U109A]	-5.95
GACCAAUCUGCCCUCAGAGCUCGAGAACAUCUUCGGAUGCAGAGGAGGCAGGCUUCGGUGGCGCGAUAGCGCCAACUUCCUCAACCUCCAAUGCAUCCCCCCACAUGAUGAUGCCUGUAGAGCCUUGGCUUUUUG [G77U A100C A118U U129C]	-1.45
